What was measured:
[1] = system: GST-CDKACTH1 labelled with Cy3 (CDKACTH1-Cy3)
[2] = system: CDKACT-WWH1 biosensor labelled with Cy5
[3] = system: CDKACT-WWH1 biosensor labelled with Cy3
Sequence of CDKACT-WWH1 biosensor labelled with Cy3 (chain, as listed by the source): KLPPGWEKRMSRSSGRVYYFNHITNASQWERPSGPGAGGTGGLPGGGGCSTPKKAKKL

Sequence of unlabelled GST-CDKACTH1 (chain, as listed by the source): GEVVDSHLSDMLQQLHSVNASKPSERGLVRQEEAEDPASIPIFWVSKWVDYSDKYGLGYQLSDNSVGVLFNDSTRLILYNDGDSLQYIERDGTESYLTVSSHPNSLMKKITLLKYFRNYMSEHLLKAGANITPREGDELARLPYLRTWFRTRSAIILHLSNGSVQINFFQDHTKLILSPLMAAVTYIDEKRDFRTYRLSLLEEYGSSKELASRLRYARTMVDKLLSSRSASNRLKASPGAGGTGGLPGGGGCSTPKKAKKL

Substance	radioactive kinase assay (phosphorylation, 30 min at 30 C) (unlabelled GST-CDKACTH1)	real-time fluorescence kinase assay (Cy3 fluorescence) [1]	real-time fluorescence kinase assay (Cy5 fluorescence) [2]	competition in the fluorescence kinase assay (phosphorylation of CDKACTH1-Cy3) (unlabelled GST-CDKACTH1)	real-time fluorescence kinase assay (Cy3 fluorescence) [3]	competition in the fluorescence kinase assay (phosphorylation of CDKACTH1-Cy3) (histone H1)
recombinant CDK1/Cyclin B (GST-CDK1/CIV Cyclin B)	CDKACT-H1 is phosphorylated by GST-CDK2/Cyclin A and GST-CDK1-Cyclin B in a standard kinase assay	CDK1/Cyclin B indeed phosphorylated CDKACTH1, however in the same conditions as CDK2/Cyclin A it did not induce the same response	–	–	–	–
recombinant active CDK2/Cyclin A (GST-CDK2/CIV complexed with His-Cyclin A)	CDKACT-H1 is phosphorylated by GST-CDK2/Cyclin A and GST-CDK1-Cyclin B in a standard kinase assay	Both CDKACTH1 and CDKACTWWH1 report on CDK2/CyclinA activity	CDKACTWWH1, reports on CDK2/CyclinA activity, through significant changes in fluorescence enhancement	histone and unlabelled sensor prevented full phosphorylation of CDKACTH1	Both CDKACTH1 and CDKACTWWH1 report on CDK2/CyclinA activity, however CDKACTWWH1 yields greater changes in fluorescence enhancement	histone and unlabelled sensor prevented full phosphorylation of CDKACTH1

— patent US20150355179
